Measurements: the RNAGym collection of RNA variant scans (doi:10.7554/elife.80360)

B1: HDV Ribozyme (parent)
chain: GGCCGGCAUGGUCCCAGCCUCCUCGCUGGCGCCGGCUGGGCAACAUUCCGAGGGGACCGUCCCCUCGGUAAUGGCGAAUGGGACCCA

Variants of: B1
Experiment: self-cleavage, relative activity (ratio to wild type); higher = more cleavage; co-transcriptional

In order of falling self-cleavage:
1. C7U G76A  1.09
2. A8C A16C  1.07
3. C7U A56G  0.997
4. C7G G31C  0.95
5. G6C U37C  0.923
6. C7A C26U  0.919
7. C7U U65C  0.914
8. C7U G67A  0.904
9. C7A G76A  0.868
10. A8C A87U  0.847
11. C7U G40U  0.821
12. C7U G59U  0.812
13. C7U A56C  0.806
14. C7A C61G  0.806
15. C7A G54C  0.8
16. C7U C14U  0.785
17. A8C A71G  0.772
18. C7U G76U  0.755
19. C7U G55C  0.736
20. G6U G67C  0.73
21. C7U C49U  0.727
22. C7U G55A  0.724
23. C7A C62U  0.721
24. C7U A45G  0.72
25. C7A A45G  0.705
26. C7A C61A  0.692
27. C7U G67U  0.684
28. A8C A87G  0.674
29. C7G C63U  0.674
30. G6U C58A  0.672
31. C7U C85A  0.665
32. G6U C85U  0.646
33. C7A G53A  0.642
34. G6U  0.63
35. G6U C58G  0.628
36. G6U C58U  0.617
37. G6C G76U  0.604
38. G6U G40A  0.587
39. C7U G31U  0.575
40. G6U A70G  0.571
41. G6U G68U  0.554
42. C7A C26G  0.554
43. C7A G53U  0.544
44. C7A A51U  0.538
45. G6U C61U  0.525
46. C7A A87G  0.521
47. C7A C41U  0.489
48. C7U U47C  0.482
49. G6C C86A  0.482
50. C7A G50U  0.475
51. G6U G50U  0.475
52. C7A C48G  0.462
53. C7G G31A  0.441
54. G6U U65A  0.431
55. C7U A42G  0.415
56. C7G U37C  0.399
57. C7A U9G  0.396
58. G6U C48G  0.374
59. G6U G50A  0.372
60. G6U C26G  0.364
61. C7U U23G  0.332
62. A8C A83C  0.317
63. G6C G55C  0.308
64. A8C A78C  0.302
65. G6C G76A  0.297
66. C7A C49G  0.291
67. G6U U65C  0.289
68. A8C A43U  0.289
69. C7A U46A  0.287
70. C7G A87U  0.284
71. G6C U65C  0.277
72. G6C C48U  0.277
73. G6C G68U  0.277
74. G6U G73C  0.266
75. C7U C24U  0.261
76. C7U G17U  0.259
77. G6C G35U  0.256
78. C7G A70G  0.256
79. G6U A78C  0.252
80. G6U C13U  0.249
81. A8C C22A  0.249
82. C7G G59U  0.237
83. G6U U27C  0.237
84. A8C A83U  0.237
85. C7G A70C  0.237
86. C7A U12G  0.237
87. C7G A51G  0.237
88. C7A C18U  0.229
89. G6U C7A  0.227
90. C7A G10C  0.201
91. C7A G74U  0.201
92. A8C A42C  0.201
93. C7G U65G  0.199
94. G6U G40C  0.193
95. C7U G34C  0.193
96. C7A U23G  0.19
97. C7A G39U  0.18
98. G6C G55U  0.177
99. G6U U27G  0.172
100. G6U G74A  0.16
101. C7A G80U  0.152
102. C7G U27C  0.151
103. G6U G74U  0.151
104. C7G G39A  0.147
105. G6C G11C  0.138
106. A8C A42U  0.133
107. C7A G73U  0.128
108. C7U C13A  0.124
109. C7A A77C  0.115
110. C7A A77G  0.107
111. C7A G73C  0.106
112. C7G G25A  0.104
113. C7U C36G  0.104
114. C7G A8U  0.104
115. C7G G38A  0.101
116. G6C C75U  0.095
117. C7U G39C  0.0923
118. C7A A43C  0.0923
119. C7A A77U  0.0875
120. G6U C15G  0.0875
121. C7A C36G  0.0875
122. C7G A77U  0.0875
123. G6C G10C  0.0875
124. C7G U65C  0.0831
125. G6U G39A  0.0811
126. G6C U37A  0.0791
127. G6U G10U  0.0791
128. C7A U46G  0.0755
129. C7G A77G  0.0755
130. C7A G80A  0.0739
131. C7A G39A  0.0739
132. G6C G35C  0.0723
133. C7A G10U  0.0723
134. A8C C13G  0.0692
135. C7G G38U  0.0692
136. G6C C44G  0.0692
137. C7A G11A  0.0674
138. C7A C33A  0.0639
139. C7G G73A  0.0639
140. C7A G28C  0.0615
141. C7G G81U  0.0594
142. C7G G68A  0.0594
143. G6C G34A  0.0536
144. C7A C33G  0.0519
145. C7A A45C  0.0462
146. G6U C24G  0.0462
147. A8C C19A  0.0449
148. G6U G35C  0.0437
149. C7A C24G  0.0415
150. A8C C18A  0.0415
151. G6U G34C  0.0405
152. C7U C36A  0.0405
153. G6C G82C  0.0405
154. C7U G25C  0.0378
155. C7A G74A  0.026
156. C7G U12A  0
157. G6U G73U  0
158. G6C G11A  0
159. C7G G39C  0
160. C7U G17C  0
161. G6C G17C  0
162. C7A G11C  0
163. G6C G28C  0
164. C7G U37G  0
165. C7G U9C  0
166. G6C G82A  0
167. C7G U20A  0
